First the molecules themselves.
B1: CPEB3 Ribozyme (parent)
chain: GGGGGCCACAGCAGAAGCGUUCACGUCGCGGCCCCUGUCAGAUUCUGGUGAAUCUGCGAAUUCUGCUGU

In this data set the parent is B1. As to the kind of experiment: self-cleavage, relative activity (ratio to wild type); higher = more cleavage; co-transcriptional.
In the case of AGGGGCCACAGCAGAAGCCUUCACGUCGCGGCCCCUGUCAGAUUCUGGUGAAUCUGCGAAUUCUGCUGU [G1A G19C], the self-cleavage was determined as 0.0333.

Regarding AGGGGCAACAGCAGAAGCGUUCACGUCGCGGCCCCUGUCAGAUUCUGGUGAAUCUGCGAAUUCUGCUGU [G1A C7A], the self-cleavage amounted to 0.155.

On to AGGGGCUACAGCAGAAGCGUUCACGUCGCGGCCCCUGUCAGAUUCUGGUGAAUCUGCGAAUUCUGCUGU [G1A C7U], for which the self-cleavage was determined as 0.0863.

AGGGGCCACAGCAGAAGCGUUCACGUGGCGGCCCCUGUCAGAUUCUGGUGAAUCUGCGAAUUCUGCUGU [G1A C27G]: the self-cleavage stood at 0.0668.

Turning to AGGGGCCACACCAGAAGCGUUCACGUCGCGGCCCCUGUCAGAUUCUGGUGAAUCUGCGAAUUCUGCUGU [G1A G11C], the self-cleavage was 0.0395.

In the case of AGGGGCCACAGCAGAAGCGUUCACGUCGAGGCCCCUGUCAGAUUCUGGUGAAUCUGCGAAUUCUGCUGU [G1A C29A], the self-cleavage was 0.061.

For AGGGGCCACAGCAGAAGCGUUCACGUCGCGGCCCCUGUCAGAUUCUGGUGAAUUUGCGAAUUCUGCUGU [G1A C54U], the self-cleavage was 0.0835.

For the variant AGGGGCCACAGCAGAAGCGUUCGCGUCGCGGCCCCUGUCAGAUUCUGGUGAAUCUGCGAAUUCUGCUGU [G1A A23G], the self-cleavage was found to be 0.139.

For the variant AGGGGCCACAGCAGAAGCGUUCCCGUCGCGGCCCCUGUCAGAUUCUGGUGAAUCUGCGAAUUCUGCUGU [G1A A23C], the self-cleavage was found to be 0.0884.

For the variant AGGGGCCCCAGCAGAAGCGUUCACGUCGCGGCCCCUGUCAGAUUCUGGUGAAUCUGCGAAUUCUGCUGU [G1A A8C], the self-cleavage amounted to 0.102.

Consider AGGGGCCGCAGCAGAAGCGUUCACGUCGCGGCCCCUGUCAGAUUCUGGUGAAUCUGCGAAUUCUGCUGU [G1A A8G], for which the self-cleavage came to 0.0246.

In the case of AGGGGCCACGGCAGAAGCGUUCACGUCGCGGCCCCUGUCAGAUUCUGGUGAAUCUGCGAAUUCUGCUGU [G1A A10G], the self-cleavage was 0.115.

Turning to AGGGGCCACUGCAGAAGCGUUCACGUCGCGGCCCCUGUCAGAUUCUGGUGAAUCUGCGAAUUCUGCUGU [G1A A10U], the self-cleavage is 0.0492.

Consider AGGGGCCACAGCAGAAGCGUUCACGUCGCGGCCCGUGUCAGAUUCUGGUGAAUCUGCGAAUUCUGCUGU [G1A C35G], for which the self-cleavage was found to be 0.053.

On to AGGGGCCACAGCAGAAGCGUUCACGUCGCGGCACCUGUCAGAUUCUGGUGAAUCUGCGAAUUCUGCUGU [G1A C33A], for which the self-cleavage is 0.0757.

As to AGGGGCCACAGCAGAAGCGUUCACGUCGCGGCCCCUGUCAGAUUAUGGUGAAUCUGCGAAUUCUGCUGU [G1A C45A], the self-cleavage is 0.0944.

For AGGUGCCACAGCAGAAGCGUUCACGUCGCGGCCCCUGUCAGAUUCUGGUGAAUCUGCGAAUUCUGCUGU [G1A G4U], the self-cleavage turned out to be 0.0804.

Take AGGGGCCACAGCAGAAGCGUUCACGUCGCGGCCCCUGUCAGAUUCUGGUGCAUCUGCGAAUUCUGCUGU [G1A A51C]: the self-cleavage was 0.114.

On to AGGGGCCACAGCAGAAGCGUUCACGUCGCGGCCCCUGUCAGAUUCUGGUGGAUCUGCGAAUUCUGCUGU [G1A A51G], for which the self-cleavage stood at 0.0779.

As to AGGGGCCACAGCAGAAGCGUUCACGUCGCGGCCCCUGUCGGAUUCUGGUGAAUCUGCGAAUUCUGCUGU [G1A A40G], the self-cleavage is 0.0657.

With AGGGGCCACAGCAGAACCGUUCACGUCGCGGCCCCUGUCAGAUUCUGGUGAAUCUGCGAAUUCUGCUGU [G1A G17C], the self-cleavage came out at 0.0672.

Consider AGGGGCCACAGCAGAAGCGUUCACGUCGCGGCCCCUGUCAGAUUCUGGUGAAUCUGCGAAUUCUGUUGU [G1A C66U], for which the self-cleavage is 0.0966.

With AGGGGCCACAGCAGAAGCGUUCACGUCGCGGCCCCUGUCAGAUUCUGGUGAAUCUGCGAAUUCUGAUGU [G1A C66A], the self-cleavage came to 0.0751.

Regarding AGGGGCCACAGCAGAAGCGUUCACAUCGCGGCCCCUGUCAGAUUCUGGUGAAUCUGCGAAUUCUGCUGU [G1A G25A], the self-cleavage was 0.0488.

As for AGGGGCCACAGCAGAAGCGUUCACGUCGCGGCCCCUGUGAGAUUCUGGUGAAUCUGCGAAUUCUGCUGU [G1A C39G], the self-cleavage turned out to be 0.0386.

For AGGGGCCACAGCAGAAGCGUUCACGUCGCGGCCCCUGUAAGAUUCUGGUGAAUCUGCGAAUUCUGCUGU [G1A C39A], the self-cleavage came to 0.0683.

AGGGGCCACAGCAGACGCGUUCACGUCGCGGCCCCUGUCAGAUUCUGGUGAAUCUGCGAAUUCUGCUGU [G1A A16C]: the self-cleavage came out at 0.028.

Turning to AGGGGCCACAGCAGAUGCGUUCACGUCGCGGCCCCUGUCAGAUUCUGGUGAAUCUGCGAAUUCUGCUGU [G1A A16U], the self-cleavage was 0.0347.

As for AGAGGCCACAGCAGAAGCGUUCACGUCGCGGCCCCUGUCAGAUUCUGGUGAAUCUGCGAAUUCUGCUGU [G1A G3A], the self-cleavage is 0.107.

As to AGUGGCCACAGCAGAAGCGUUCACGUCGCGGCCCCUGUCAGAUUCUGGUGAAUCUGCGAAUUCUGCUGU [G1A G3U], the self-cleavage amounted to 0.0455.

Turning to AGGGGCCACAGCAUAAGCGUUCACGUCGCGGCCCCUGUCAGAUUCUGGUGAAUCUGCGAAUUCUGCUGU [G1A G14U], the self-cleavage was 0.0964.

In the case of AAGGGCCACAGCAGAAGCGUUCACGUCGCGGCCCCUGUCAGAUUCUGGUGAAUCUGCGAAUUCUGCUGU [G1A G2A], the self-cleavage stood at 0.302.

AUGGGCCACAGCAGAAGCGUUCACGUCGCGGCCCCUGUCAGAUUCUGGUGAAUCUGCGAAUUCUGCUGU [G1A G2U]: the self-cleavage was found to be 0.332.

Regarding ACGGGCCACAGCAGAAGCGUUCACGUCGCGGCCCCUGUCAGAUUCUGGUGAAUCUGCGAAUUCUGCUGU [G1A G2C], the self-cleavage turned out to be 0.265.

Take AGGGGCCACAGCAGAAGCGUUGACGUCGCGGCCCCUGUCAGAUUCUGGUGAAUCUGCGAAUUCUGCUGU [G1A C22G]: the self-cleavage was 0.0704.

In the case of AGGGGCCACAGCAGAAGCGUUAACGUCGCGGCCCCUGUCAGAUUCUGGUGAAUCUGCGAAUUCUGCUGU [G1A C22A], the self-cleavage is 0.0619.

The values above are taken from the RNAGym collection of RNA variant scans (doi:10.7554/elife.80360).
